Assay results reported in publication PMC4494967.

Experiments:
FBXW7 = FBXW7 (UniProt Q969H0); assay: anti-myc IP, anti-HA blot; settings: reference: myc-CCDC6 wild type; sites S359,S413,T427
USP7 = USP7 (UniProt Q93009); assay: anti-myc IP, western blot; settings: reference: myc-CCDC6 wild type; sites S359,S413,T427

CCDC6 (from UniProt Q16204) triple mutant S359A/S413A/T427A (TM)
binding against the reference (FBXW7): weaker
binding against the reference (USP7): stronger
